The text below walks through data of patent publication US20130302348A1 (MIT, published 2013).

The experiment addresses biotinylated H5 (A/Vietnam/1203/2004) HA polypeptide (influenza virus A/Vietnam/1203/2004, UniProt Q8QPL1 17-531).

B1: exemplary antibody (VH-1 combined with VL-1; Table 4) (antibody, V domains shown)
VH: EVQLLESGGGLVKPGQSLKLSCAASGFTFTSYGMHWVRQPPGKGLEWVAVISYDGSYKYYADSVQGRFTISRDNSKNTLYLQMNSLRAEDTAVYYCAKDSELRSLLYFEWLSQGYFNPWGAGTTLTVSS
VL: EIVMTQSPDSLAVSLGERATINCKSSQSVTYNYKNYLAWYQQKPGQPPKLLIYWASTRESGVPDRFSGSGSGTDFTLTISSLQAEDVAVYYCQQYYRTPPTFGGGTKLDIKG
notes: also called exemplary influenza antibody
B1 yielded a Kd of 0.03 nM, an off-rate constant (koff) of 7.38e-06 s⁻¹ and a kon of 247000 M⁻¹ s⁻¹.

In general, Kd refers to the free concentration of one partner at which half of the binding sites on the other are occupied at equilibrium, for simple one-to-one binding. The low end stands for higher affinity, the high end for lower affinity. As a reminder, the koff is the first-order rate constant of dissociation. A low value points to a long-lived complex. For orientation: kon means the second-order rate constant of association. A higher kon goes with faster complex formation.
